Laboratory results as given in article PMC4973239, “Crystal structure of the human Tip41 orthologue, TIPRL, reveals a novel fold and a binding site for the PP2Ac C-terminus” (Scientific Reports, 2016).

Experiments:
[1] = biological target: TIPRLΔN, His tag removed with TEV protease (human) (UniProt O75663); experiment: SEC; size exclusion profiles under different conditions (Fig. S1B), high concentration; HiLoad 26/60 Superdex 75 pg, Tris 20 mM pH 7.5, 100 mM NaCl, 10 mM β-mercaptoethanol
[2] = biological target: T1, TIPRLΔN, His tag removed with TEV protease (human, UniProt O75663-1 16-272); experiment: crystal structure; TIPRLΔN after TEV cleavage, 70–100 mg/ml; hanging drop at 18 °C, phosphate or SPG buffer pH 5.5–6.7, 2 to 3 M NaCl; two molecules in the asymmetric unit; 2.15 Å; settings: both partners purified
T1 construct: plasmid-derived residues left at the N-terminus after TEV cleavage; they form strand β1; TIPRL (TIP41, TOR signaling pathway regulator-like), human, NP_690866.1, with a 15-residue N-terminal deletion; TEV cleavage was usually incomplete; The last 16 C-terminal residues are disordered in the crystal; also called TIPRL (crystal structure); source: E. coli BL21(DE3), purified (Ni Sepharose, TEV …)
T1 sequence: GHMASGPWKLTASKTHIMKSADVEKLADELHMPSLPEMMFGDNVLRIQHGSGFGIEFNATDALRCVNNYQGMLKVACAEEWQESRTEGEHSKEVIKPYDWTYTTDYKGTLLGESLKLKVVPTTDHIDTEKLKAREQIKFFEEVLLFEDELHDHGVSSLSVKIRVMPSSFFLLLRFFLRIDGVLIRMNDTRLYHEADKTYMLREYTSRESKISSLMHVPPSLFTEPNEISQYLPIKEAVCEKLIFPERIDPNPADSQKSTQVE

## TIPRLΔN, His tag removed with TEV protease (from UniProt O75663-1 16-272) (domain or fragment)
[1]
  stoichiometry N: 2

B1: peptide generated after cleavage with the TEV protease (MGHHHHHHENLYFQ) (peptide)
peptide: MGHHHHHHENLYFQ
notes: hexa-histidine tag and TEV cleavage site of the vector pET-TEV, as released by TEV protease; only LYFQ (site on chain A) or ENLYFQ (site on chain B) is seen in the density; also called TEV site peptide; TEV-derived peptide; source: E. coli BL21(DE3)
[2]
  binding result: binds
